Data set [1] deals with HeLa Kyoto. Briefly: solubility in G1/S (NP-40 vs SDS abundance) (log2 ratio); higher = more soluble. As to conditions: cell cycle stage: G1/S.
The test system of data set [2] is HeLa Kyoto. Briefly: thermal stability score vs G1/S (z-score of summed log2 fold changes over temperatures); higher = more thermally stable than in G1/S.
The subject of data set [3] is HeLa Kyoto. Nature of the data set: solubility change mitosis vs G1/S (difference of NP-40 vs SDS log2 ratios) (log2 ratio difference); higher = more soluble in mitosis.
Data set [4] concerns HeLa Kyoto. Briefly: melting temperature (median over replicates), in situ; higher = more thermally stable.
Setting [5] is: cell cycle stage: early G1 (4.5 h after nocodazole release).
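Wherever melting temperature (median over replicates), in situ is given: HeLa Kyoto cells synchronized by double thymidine or nocodazole block, proteins quantified by TMT10plex mass spectrometry, three independent biological replicates.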
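Wherever solubility change mitosis vs G1/S (difference of NP-40 vs SDS log2 ratios) is given: synchronized HeLa Kyoto cells (double thymidine block for G1/S, nocodazole release for mitosis), protein amounts in NP-40 versus SDS lysates quantified by mass spectrometry, three biological replicates.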
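Wherever solubility in G1/S (NP-40 vs SDS abundance) is given: HeLa Kyoto cells arrested at G1/S by double thymidine block, proteins quantified by TMT10plex mass spectrometry in mild NP-40 versus SDS extracts, three biological replicates.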
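Wherever thermal stability score vs G1/S (z-score of summed log2 fold changes over temperatures) is given: synchronized HeLa Kyoto cells, proteins quantified by TMT10plex mass spectrometry, three biological replicates, mitosis taken 0.5 h after nocodazole release, G1/S directly after double thymidine block.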

Regarding “MSRLGALGGARAGLGLLLGTAAGLGFLCLLYSQRWKRTQRHGRSQSLPNSLDYTQTSDPGRHVMLLRAVPGGAGDASVLPSLPREGQEKVLDRLDFVLTSLVALRREVEELRSSLRGLAGEIVGEVRCHMEENQRVARRRRFPFVRERSDSTGSSSVYFTASSGATFTDAESEGGYTTANAESDNERDSDKESEDGEDEVSCETVKMGRKDSLDLEEEAASGASSALEAGGSSGLEDVLPLLQQADELHRGDEQGKREGFQLLLNNKLVYGSRQDFLWRLARAYSDMCELTEEVSEKKSYALDGKEEAEAALEKGDESADCHLWYAVLCGQLAEHESIQRRIQSGFSFKEHVDKAIALQPENPMAHFLLGRWCYQVSHLSWLEKKTATALLESPLSATVEDALQSFLKAEELQPGFSKAGRVYISKCYRELGKNSEARWWMKLALELPDVTKEDLAIQKDLEELEVILRD [RMDN3]”, the “solubility in G1/S (log2)” value in data set [1] was -0.0304. Further, the thermal stability score in data set [2] (setting [5]) is 0.252; in data set [2] (cell cycle stage: mitosis), -0.0237. Further, the “solubility change mitosis (log2)” value in data set [3] was -0.102. Besides, the melting temperature in data set [4] (cell cycle stage: G1/S) came out at 51.1 °C; in data set [4] (cell cycle stage: mitosis) it was 50.8 °C.

Take “MTKSNGEEPKMGGRMERFQQGVRKRTLLAKKKVQNITKEDVKSYLFRNAFVLLTVTAVIVGTILGFTLRPYRMSYREVKYFSFPGELLMRMLQMLVLPLIISSLVTGMAALDSKASGKMGMRAVVYYMTTTIIAVVIGIIIVIIIHPGKGTKENMHREGKIVRVTAADAFLDLIRNMFPPNLVEACFKQFKTNYEKRSFKVPIQANETLVGAVINNVSEAMETLTRITEELVPVPGSVNGVNALGLVVFSMCFGFVIGNMKEQGQALREFFDSLNEAIMRLVAVIMWYAPVGILFLIAGKIVEMEDMGVIGGQLAMYTVTVIVGLLIHAVIVLPLLYFLVTRKNPWVFIGGLLQALITALGTSSSSATLPITFKCLEENNGVDKRVTRFVLPVGATINMDGTALYEALAAIFIAQVNNFELNFGQIITISITATAASIGAAGIPQAGLVTMVIVLTSVGLPTDDITLIIAVDWFLDRLRTTTNVLGDSLGAGIVEHLSRHELKNRDVEMGNSVIEENEMKKPYQLIAQDNETEKPIDSETKM [SLC1A3]”: the “solubility in G1/S (log2)” value in data set [1] was -0.131. The thermal stability score in data set [2] (setting [5]) was -4.57; in data set [2] (cell cycle stage: mitosis) it was -5.19. For the same substance, in data set [3], the “solubility change mitosis (log2)” value amounted to 0.0284. The melting temperature in data set [4] (cell cycle stage: G1/S) amounted to 61.8 °C; in data set [4] (cell cycle stage: mitosis), 58 °C.

In the case of “MSLLMISENVKLAREYALLGNYDSAMVYYQGVLDQMNKYLYSVKDTYLQQKWQQVWQEINVEAKHVKDIMKTLESFKLDSTPLKAAQHDLPASEGEVWSMPVPVERRPSPGPRKRQSSQYSDPKSHGNRPSTTVRVHRSSAQNVHNDRGKAVRCREKKEQNKGREEKNKSPAAVTEPETNKFDSTGYDKDLVEALERDIISQNPNVRWDDIADLVEAKKLLKEAVVLPMWMPEFFKGIRRPWKGVLMVGPPGTGKTLLAKAVATECKTTFFNVSSSTLTSKYRGESEKLVRLLFEMARFYSPATIFIDEIDSICSRRGTSEEHEASRRVKAELLVQMDGVGGTSENDDPSKMVMVLAATNFPWDIDEALRRRLEKRIYIPLPSAKGREELLRISLRELELADDVDLASIAENMEGYSGADITNVCRDASLMAMRRRIEGLTPEEIRNLSKEEMHMPTTMEDFEMALKKVSKSVSAADIERYEKWIFEFGSC [KATNA1]”, the “solubility in G1/S (log2)” value in data set [1] turned out to be 0.0763. Further, the thermal stability score is 0.0753 in data set [2] (setting [5]) and 0.484 in data set [2] (cell cycle stage: mitosis). In addition, the “solubility change mitosis (log2)” value in data set [3] was -0.000211. Also, the melting temperature was determined as 51.4 °C in data set [4] (cell cycle stage: G1/S) and 49.9 °C in data set [4] (cell cycle stage: mitosis).

On to “MESRKLISATDIQYSGSLLNSLNEQRGHGLFCDVTVIVEDRKFRAHKNILSASSTYFHQLFSVAGQVVELSFIRAEIFAEILNYIYSSKIVRVRSDLLDELIKSGQLLGVKFIAELGVPLSQVKSISGTAQDGNTEPLPPDSGDKNLVIQKSKDEAQDNGATIMPIITESFSLSAEDYEMKKIIVTDSDDDDDDVIFCSEILPTKETLPSNNTVAQVQSNPGPVAISDVAPSASNNSPPLTNITPTQKLPTPVNQATLSQTQGSEKLLVSSAPTHLTPNIILLNQTPLSTPPNVSSSLPNHMPSSINLLVQNQQTPNSAILTGNKANEEEEEEIIDDDDDTISSSPDSAVSNTSLVPQADTSQNTSFDGSLIQKMQIPTLLQEPLSNSLKISDIITRNTNDPGVGSKHLMEGQKIITLDTATEIEGLSTGCKVYANIGEDTYDIVIPVKDDPDEGEARLENEIPKTSGSEMANKRMKVKHDDHYELIVDGRVYYICIVCKRSYVCLTSLRRHFNIHSWEKKYPCRYCEKVFPLAEYRTKHEIHHTGERRYQCLACGKSFINYQFMSSHIKSVHSQDPSGDSKLYRLHPCRSLQIRQYAYLSDRSSTIPAMKDDGIGYKVDTGKEPPVGTTTSTQNKPMTWEDIFIQQENDSIFKQNVTDGSTEFEFIIPESY [ZBTB33]”, for which the “solubility in G1/S (log2)” value in data set [1] is -0.035. Further, the thermal stability score in data set [2] (setting [5]) is 1.76; in data set [2] (cell cycle stage: mitosis) it was 3.1. Further, the “solubility change mitosis (log2)” value in data set [3] was -0.162. Moreover, the melting temperature in data set [4] (cell cycle stage: G1/S) was found to be 46.4 °C; in data set [4] (cell cycle stage: mitosis), 51.6 °C.

Turning to ZC3H13, the “solubility in G1/S (log2)” value in data set [1] is -0.595. For the same substance, the thermal stability score was found to be 0.124 in data set [2] (setting [5]) and 2.39 in data set [2] (cell cycle stage: mitosis). Besides, the “solubility change mitosis (log2)” value in data set [3] is 0.414. Besides, the melting temperature came out at 49.5 °C in data set [4] (cell cycle stage: G1/S) and 50.7 °C in data set [4] (cell cycle stage: mitosis).

As for “MFRYESLEDCPLDEDEDAFQGLGEEDEEIDQFNDDTFGSGAVDDDWQEAHERLAELEEKLPVAVNEQTGNGERDEMDLLGDHEENLAERLSKMVIENELEDPAIMRAVQTRPVLQPQPGSLNSSIWDGSEVLRRIRGPLLAQEMPTVSVLEYALPQRPPQGPEDDRDLSERALPRRSTSPIIGSPPVRAVPIGTPPKQMAVPSFTQQILCPKPVHVRPPMPPRYPAPYGERMSPNQLCSVPNSSLLGHPFPPSVPPVLSPLQRAQLLGGAQLQPGRMSPSQFARVPGFVGSPLAAMNPKLLQGRVGQMLPPAPGFRAFFSAPPSATPPPQQHPPGPGPHLQNLRSQAPMFRPDTTHLHPQHRRLLHQRQQQNRSQHRNLNGAGDRGSHRSSHQDHLRKDPYANLMLQREKDWVSKIQMMQLQSTDPYLDDFYYQNYFEKLEKLSAAEEIQGDGPKKERTKLITPQVAKLEHAYKPVQFEGSLGKLTVSSVNNPRKMIDAVVTSRSEDDETKEKQVRDKRRKTLVIIEKTYSLLLDVEDYERRYLLSLEEERPALMDDRKHKICSMYDNLRGKLPGQERPSDDHFVQIMCIRKGKRMVARILPFLSTEQAADILMTTARNLPFLIKKDAQDEVLPCLLSPFSLLLYHLPSVSITSLLRQLMNLPQSAATPALSNPHLTAVLQNKFGLSLLLILLSRGEDLQSSDPATESTQNNQWTEVMFMATRELLRIPQAALAKPISIPTNLVSLFSRYVDRQKLNLLETKLQLVQGIR [PATL1]”, the “solubility in G1/S (log2)” value in data set [1] is 0.255. Moreover, the results for the thermal stability score in data set [2] (setting [5]) and in data set [2] (cell cycle stage: mitosis) were -0.863 and 0.327, respectively. Also, the “solubility change mitosis (log2)” value in data set [3] was -0.0674. Also, the melting temperature in data set [4] (cell cycle stage: G1/S) was found to be 49.2 °C; in data set [4] (cell cycle stage: mitosis), 48.5 °C.

Consider “MENGYTYEDYKNTAEWLLSHTKHRPQVAIICGSGLGGLTDKLTQAQIFDYGEIPNFPRSTVPGHAGRLVFGFLNGRACVMMQGRFHMYEGYPLWKVTFPVRVFHLLGVDTLVVTNAAGGLNPKFEVGDIMLIRDHINLPGFSGQNPLRGPNDERFGDRFPAMSDAYDRTMRQRALSTWKQMGEQRELQEGTYVMVAGPSFETVAECRVLQKLGADAVGMSTVPEVIVARHCGLRVFGFSLITNKVIMDYESLEKANHEEVLAAGKQAAQKLEQFVSILMASIPLPDKAS [PNP]”, for which, in data set [1], the “solubility in G1/S (log2)” value was determined as 0.301. The thermal stability score in data set [2] (setting [5]) was -0.982; in data set [2] (cell cycle stage: mitosis), -1.39. In data set [3], the “solubility change mitosis (log2)” value is -0.144. The melting temperature amounted to 60.3 °C in data set [4] (cell cycle stage: G1/S) and 60.2 °C in data set [4] (cell cycle stage: mitosis).

On to PCMT1, for which the “solubility in G1/S (log2)” value in data set [1] worked out at 0.427. In addition, the thermal stability score in data set [2] (setting [5]) was 0.536; in data set [2] (cell cycle stage: mitosis), -0.469. For the same substance, the “solubility change mitosis (log2)” value in data set [3] was 0.147. Besides, the melting temperature turned out to be 54 °C in data set [4] (cell cycle stage: G1/S) and 54.8 °C in data set [4] (cell cycle stage: mitosis).

The values are drawn from the supplement of paper PMC5998384.
